Changes are numbered by the printed parent chain.

Common to all, as to assay: cell-based or functional assay
Assay [1] concerns the target T1, Recombinant human IL-4 (human, UniProt P05112 25-153).
T1 sequence (looked up): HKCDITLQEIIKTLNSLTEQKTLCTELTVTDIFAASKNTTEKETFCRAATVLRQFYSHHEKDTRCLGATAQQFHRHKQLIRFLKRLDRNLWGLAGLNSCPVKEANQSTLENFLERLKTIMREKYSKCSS

The target in assay [2] is T1, Recombinant human IL-4. The source holds these as a separate data set.
The next assay has as its target T2, cynomolgus monkey IL-4 (cynomolgus monkey, UniProt P79339 25-153, limits assumed).
T2 sequence (looked up): T1 sequence (looked up) with E26K, V29I, F33L

Assay [3] addresses T1, Recombinant human IL-4. This is another data set of the same source.

B1: huTBTI3_2_1 (bispecific antibody)
VH: EVQLKESGPGLVAPGGSLSITCTVSGFSLTDSSINWVRQPPGKGLEWLGMIWGDGRIDYADALKSRLSISKDSSKSQVFLEMTSLRTDDTATYYCARDGYFPYAMDFWGQGTSVTVSSGGGGSGGGGSQVQLQQSGPELVKPGASVKISCKASGYSFTSYWIHWIKQRPGQGLEWIGMIDPSDGETRLNQRFQGRATLTVDESTSTAYMQLRSPTSEDSAVYYCTRLKEYGNYDSFYFDVWGAGTLVTVSS
VL: DIVLTQSPASLAVSLGQRATISCRASESVDSYGQSYMHWYQQKAGQPPKLLIYLASNLESGVPARFSGSGSRTDFTLTIDPVQAEDAATYYCQQNAEDSRTFGGGTKLEIKGGGGSGGGGSDIQMTQSPASLSVSVGDTITLTCHASQNIDVWLSWFQQKPGNIPKLLIYKASNLHTGVPSRFSGSGSGTGFTLTISSLQPEDIATYYCQQAHSYPFTFGGGTKLEIK
Consider B1, for which, in the assay with Recombinant human IL-4 [1], the “IC50, inhibition of IL-4-induced Stat6 phosphorylation in human blood monocytes, donor 217” value is 0.78 nM; the “IC50, inhibition of IL-4-induced Stat6 phosphorylation in human blood monocytes, donor 229” value was 0.73 nM; the “IC50, inhibition of IL-4-induced Stat6 phosphorylation in human blood monocytes, donor 245” value was found to be 1.32 nM. Besides, the “Mean IC50, inhibition of TF-1 cell proliferation induced by human IL-4” value in the assay with Recombinant human IL-4 [2] was 2.03 nM. In addition, in the assay with cynomolgus monkey IL-4, the “Mean IC50, inhibition of TF-1 cell proliferation induced by cynomolgus IL-4” value turned out to be 0.53 nM. In the assay with Recombinant human IL-4 [3], the “IC50, IL-4/IL-13-stimulated IL-6 release from LL97A IPF lung fibroblasts (combination of 15 ng/ml rhIL-13 plus 5 ng/ml rhIL-4)” value amounted to 7.8 nM; the “IC50, IL-4/IL-13-stimulated eotaxin release from LL97A IPF lung fibroblasts (combination of 15 ng/ml rhIL-13 plus 5 ng/ml rhIL-4)” value came to 3.8 nM; the “IC50, IL-4 and IL-13 induced LOX gene expression in IPF pulmonary fibroblasts (Taqman)” value fell in the range of 3 to 6 nM.

For the origin of these results see US20210221882A1 (Sanofi, published 2021).
